Test results from patent publication EP3459964A1, “GALECTIN-1 BINDING PEPTIDES AND USE THEREOF FOR DIAGNOSTIC AND THERAPEUTIC PURPOSE” (Université de Mons, priority 2017, dated 2019).
Where no end group is shown, it is not given here.

Assays:
Human gal-1 = biological target: T1, Human gal-1 (Homo sapiens, UniProt P09382); assay: Gal-1 binding of the isolated phage clones (ELISA), affinity constants against gal-1 or control proteins (HSA, collagen); details: phage clone expressing the peptide; for Affinity 2 Ka^Gal-1 / Ka^Coll / Affinity 1 Ka^Gal-1 / Ka^HSA: Ka = 1/K*d; for Affinity 2 Ka^Gal-1 / Ka^Coll: Coll = collagen; for Affinity 1 Ka^Gal-1 / Ka^HSA: one representative clone per sequence; for Affinity 3 Ka^Gal-1/ ((Ka^HSA + Ka^Coll)/2): specific affinity vs mean of control proteins
T1 construct: purchased Peprotech
T1 sequence (P09382 whole entry): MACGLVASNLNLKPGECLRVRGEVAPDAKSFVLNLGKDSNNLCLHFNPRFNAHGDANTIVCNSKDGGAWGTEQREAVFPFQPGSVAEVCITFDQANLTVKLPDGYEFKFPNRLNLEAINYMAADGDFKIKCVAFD
Protocol: Human gal-1 (Peprotech) and control proteins (HSA and collagen) were immobilized on 96-well ELISA plates at a concentration of 10 µg/mL in NaHCO3 0.1 M, pH 8.6, overnight at 4°C. The wells were then blocked with Protein-Free Blocking Buffer (PFBB, Thermo Fisher Scientific, p/a Perbio Science BVBA, Aalst, Belgium), 1 hour at room temperature. Fifty clones issued from each phage display experiment were first screened at one concentration (5 x 10^11 phages/100 µL for PDE1; 10^11 phages/100 µL for PDE2) prepared in Tris buffered saline (TBS: 50 mM Tris-HCl, 150 mM NaCl, pH 7.5) supplemented with 0.5% Tween-20 (TBST). The clones were incubated for 2 hours at room temperature, under mild agitation. To determine the apparent dissociation constant (K*d) of the selected clones, ten serial dilutions of phages (generally ranging from 5x10^12 to 10^7 phages/100 µL) were incubated with gal-1 or control proteins in the same conditions as for the first clones' screening. The bound phages were detected by an incubation (1 hour, room temperature) with horseradish peroxidase (HRP)-conjugated anti-M13 monoclonal antibody (Amersham Pharmacia Biotech Benelux, Roosendaal, The Netherlands) diluted 1:5000 in TBS supplemented with 0.5% BSA. After each incubation step, the wells were rinsed with an automated microplate washer (Beckman Coulter, Analis, Suarlée, Belgium). Finally, the wells were filled with 200 µL/well of 2,2'-azino-bis(3-ethylbenzothiazoline-6-sulphonic acid (ABTS, 22 mg) diammonium salt (Sigma-Aldrich) solution prepared in 50 mM sodium citrate pH 4.0 completed with 0.05% H2O2. The optical density (OD) was measured (405 nm, differential filter: 630 nm) using a microplate reader (StatFax-2100, Awareness Technology, Fisher Bioblock Scientific, Tournai, Belgium).

TPC-1 cells = assay: Cell adhesion assay: TPC-1 cell adhesion to immobilized gal-1; format: cell-based, human; details: 500 nM, TPC-1 adhesion to gal-1, non-biotinylated peptides
Protocol: Gal-1 (Peprotech) was immobilized on 96-well culture plates at 20 µg/mL overnight at 4°C. After blocking with 0.1% BSA prepared in phosphate buffered saline (PBS, per liter: 8 g NaCl, 0.2 g KCl, 2.31 g Na2HPO4 × 12 H2O 0.2 g KH2PO4, pH 7.4), non-biotinylated peptides (P1, P7 or P1Scr) diluted in RPMI 1640 culture medium at 0.5 µM or 50 µM were pre-incubated with gal-1 for 2 hours. In the meanwhile, TPC-1 cells (10^5 cells/well) were pre-incubated with the desired concentration of peptides in RPMI 1640 culture medium for 30 minutes before seeding them into the wells. The cells were then incubated (37 °C, 5% CO2) with gal-1 immobilized on wells for one hour. The negative control cells were incubated with RPMI 1640 culture medium alone. After washing steps and plate centrifugation between them, cells were fixed 15 minutes with buffered 4% formalin (from Sigma-Aldrich) and washed before staining with 1% crystal violet. Wells were rinsed and crystal violet was solubilized with dimethyl sulfoxide (DMSO, Sigma-Aldrich) before measuring absorbance at 570 nm (differential filter at 630 nm) with a microplate reader. The percentage of adherent cells was obtained by calculating the percentage ratio of OD measured for TPC-1 incubated with peptides over the OD of negative control cells.

[1] = Circular dichroism study of secondary structure in distilled water; format: physicochemical; details: non-biotinylated peptides, 1 mM in distilled water, 20 °C and 37 °C
Protocol: Non-biotinylated peptides dissolved in distilled water at 1 mM were used for structure analysis. Circular Dichroism (CD) spectra were recorded using a ChirascanTM Plus CD Spectrometer (Applied Photophysics Inc., Leatherhead, United Kingdom). The measurements were carried out using 1 mm quartz Suprasil cells from Hellma Analytics (Müllheim, Germany). The spectra were recorded between 180 and 350 nm, with a bandwidth of 0.5 nm, time per point 2 s and three repetitions, both at 20 °C and 37 °C. The CD RMS (Root Mean Square) noise is around 0.03 mdeg at 180 nm. The aqueous solution reference spectra were used as baselines and were automatically subtracted from the CD spectra of the samples.

[2] = biological target: T2, gal-1 expressed by human tumor tissues (Homo sapiens, UniProt P09382); assay: Binding of biotinylated peptides to human thyroid biopsies (immunohistochemistry, ImageJ semi-quantitative analysis); details: for staining produced by peptides in healthy thyroids and thyroid adenomas compared to papillary, follicular and anaplastic thyroid cancer: ImageJ analysis of immunohistochemistry microphotographs; for targeting of the papillary areas: biotinylated peptides 20 µM, human papillary thyroid cancer biopsy sections
T2 construct: from tissue; host or cells: paraffin-embedded human thyroid biopsy sections (healthy, inflammatory, adenoma, papillary, follicular, anaplastic)
T2 sequence (P09382 whole entry): as above
Protocol: Immunohistochemistry evaluation was performed on 5 µm thick sections mounted on silane-coated glass slides. The paraffin-embedded tissue specimens were deparaffinized and rehydrated. After unmasking the epitopes in citrate buffer pH 6.0, the endogenous peroxidase activity was blocked with 0.7% H2O2. Sections were then blocked with streptavidin - biotin blocking kit (Vector Labconsult) and with 0.5% casein (Sigma-Aldrich).
The binding of biotinylated peptides to tumor biopsies was validated by using a similar protocol. However, no epitope unmasking was performed, while casein blocking was replaced by PFBB. Endogenous peroxidases were blocked with 1% H2O2. The biotinylated peptides (stock prepared in distilled water) were diluted in TBS at a concentration of 20 µM and incubated with tumor biopsies overnight at 4 °C. The bound peptides were then detected with 5 µg/mL of anti-biotin antibody made in goat (Vector Labconsult) and with 1 µg/mL of biotinylated anti-goat IgG made in horse (both from Vector Labconsult) both diluted in TBS completed with 0.5% BSA […]. After incubation with Vectastain ABC kit (Vector Labconsult), the staining with DAB/H2O2 and Hemalun counterstaining were performed as described above.
Gal-1 staining on immunohistochemistry microphotographs (DM2000 Leica microscope equipped with a DFC 425C camera, Leica Microsystems) was semi-quantitatively analyzed by ImageJ software (National Institutes of Health, USA). The expression of gal-1 was compared in 5 cases of healthy thyroid, 2 cases of inflammatory thyroid (patients with goiter), 6 cases of thyroid adenoma, 6 cases of papillary thyroid cancer, 4 cases of follicular variant of papillary thyroid cancer and 6 cases of anaplastic cancer. The binding of peptides 1 and 7 was compared in 5 cases of healthy thyroid, 2 cases of inflammatory thyroid, 6 cases of thyroid adenoma, 3 cases of papillary thyroid cancer, 3 cases of follicular thyroid cancer and 6 cases of anaplastic thyroid cancer. The total area occupied by brown stained pixels was determined after thresholding the background staining on blank histological slices, where the primary antibody was excluded. The total stained area is then automatically generated after pixel segmentation.

| Sequence | Affinity 2 Ka^Gal-1 / Ka^Coll (Human gal-1) | Affinity 1 Ka^Gal-1 / Ka^HSA (Human gal-1) | Affinity 3 Ka^Gal-1/ ((Ka^HSA + Ka^Coll)/2) (Human gal-1) | conformation in aqueous solution (CD signature) [1] | staining produced by peptides in healthy thyroids and thyroid adenomas compared to papillary, follicular and anaplastic thyroid cancer [2] | decrease of cell adhesion (TPC-1 cells) | targeting of the papillary areas [2] |
| --- | --- | --- | --- | --- | --- | --- | --- |
| HLWGWLYAPSFQ [Peptide P1, HLWGWLYAPSFQ] | – | – | – | random coil state | weaker | around 25% | efficient targeting of the papillary areas |
| HYSWSWIAYSPG [Peptide P3] | 1.35 | 0.99 | 1.14 | – | – | – | – |
| VHWDFRQWWQPS [Peptide P4] | 1.93 | 1.18 | 1.47 | – | – | – | – |
| YTFHFDIFQPHF [Peptide P2] | 8.15 | 121.56 | 25.66 | – | – | – | – |

The next lines start with results.

| Affinity 2 Ka^Gal-1 / Ka^Coll (Human gal-1) | Affinity 1 Ka^Gal-1 / Ka^HSA (Human gal-1) | Affinity 3 Ka^Gal-1/ ((Ka^HSA + Ka^Coll)/2) (Human gal-1) | conformation in aqueous solution (CD signature) [1] | staining produced by peptides in healthy thyroids and thyroid adenomas compared to papillary, follicular and anaplastic thyroid cancer [2] | Sequence | decrease of cell adhesion (TPC-1 cells) | targeting of the papillary areas [2] |
| --- | --- | --- | --- | --- | --- | --- | --- |
| 27.92 | 1.23 | 2.36 | – | – | DWSSWVYRDPQT [Peptide P8] | – | – |
| 1.17 | 1.17 | 1.17 | – | – | SVYVEISWVRTM [Peptide P6] | – | – |
| 1.58·10^13 | 1.25 | 2.50 | – | – | YHHSGPYAGPMW [Peptide P5] | – | – |
| infinite ratio | infinite ratio | infinite ratio | random coil state | weaker | YSWHIDIVAPRN [Peptide P7, YSWHIDIVAPRN] | ~30% | efficient targeting of the papillary areas |
